US20200330553A1 (BRIGHAM AND WOMEN S HOSPITAL, published 2020)

B1: FLAG-sortilin full-length (Full) (receptor)
chain: SAPDYKDDDDKGEDEECGRVRDFVAKLANNTHQHVFDDLRGSVSLSWVGDSTGVILVLTTFHVPLVIMTFGQSKLYRSEDYGKNFKDITDLINNTFIRTEFGMAIGPENSGKVVLTAEVSGGSRGGRIFRSSDFAKNFVQTDLPFHPLTQMMYSPQNSDYLLALSTENGLWVSKNFGGKWEEIHKAVCLAKWGSDNTIFFTTYANGSCKADLGALELWRTSDLGKSFKTIGVKIYSFGLGGRFLFASVMADKDTTRRIHVSTDQGDTWSMAQLPSVGQEQFYSILAANDDMVFMHVDEPGDTGFGTIFTSDDRGIVYSKSLDRHLYTTTGGETDFTNVTSLRGVYITSVLSEDNSIQTMITFDQGGRWTHLRKPENSECDATAKNKNECSLHIHASYSISQKLNVPMAPLSEPNAVGIVIAHGSVGDAISVMVPDVYISDDGGYSWTKMLEGPHYYTILDSGGIIVAIEHSSRPINVIKFSTDEGQCWQTYTFTRDPIYFTGLASEPGARSMNISIWGFTESFLTSQWVSYTIDFKDILERNCEEKDYTIWLAHSTDPEDYEDGCILGYKEQFLRLRKSSMCQNGRDYVVTKQPSICLCSLEDFLCDFGYYRPENDSKCVEQPELKGHDLEFCLYGREEHLTTNGYRKIPGDKCQGGVNPVREVKDLKKKCTSNFLSPEKQNSKSNSVPIILAIVGLMLVTVVAGVLIVKKYVCGGRFLVHRYSVLQQHAEANGVDGVDALDTASHTNKSGYHDDSDEDLLE
notes: signal peptide 1-33 is implied by that; Expressed in HEK293 cells; also called FLAG-sortilin WT; FLAG-sortilin wild-type

Assays:
[1] = biological target: the molecule itself; assay: non-reducing western blot, HEK293 cells
[2] = biological target: B1; assay: TR-FRET and HTRF on HEK293 cells, anti-FLAG(M2)-Cryptate and anti-6HIS-XL665
Protocol: TR-FRET and HTRF were performed as described (26). FLAG-sortilin Full HEK293 cells were harvested using dissociation solution (e.g., from Sigma Aldrich, Cat#C5914) 24 hours after transfection of 6×His-sortilin expression vector. An incubation under the circle rotator was performed at 4° C. with 1×10^6 cells/mL for TR-FRET and 2×10^6 cells/mL for HTRF containing 1 nmol/L Anti-FLAG® (M2)-Cryptate (Cisbio Bioassays, Cat#61FG2KLA, Lot#25A) and 3 nmol/L Anti-6HIS-XL665 (Cisbio Bioassays, Cat#61HISXLA, Lot#56A) in PBS supplemented with 25% FBS. For TR-FRET, cells were centrifuged at 1,000 rpm for 5 min to remove the antibodies, and resuspended in PBS, and applied into a 96-well white plate. For HTRF, cells were applied without removing the antibodies into a 96-well white plate. Then, the plate was read (excitation: 320 nm, emission: 620 nm (cutoff 570 nm), 665 nm (cutoff 630 nm), Delay […], Integration […]). The FRET signal was calculated as (the ratio of counts per seconds 665:620)×10,000, and % change of the FRET signal by 6×His-sortilin expression was expressed.

[3] = biological target: the molecule itself; assay: non-reducing western blot; BS3 cross-linking, HEK293 cells
Excerpt: In reducing western blotting, protein expressions of FLAG-sortilin Full, ECD+TMD and ICD+TMD were detected as bands of plausible molecular size (FIG. 2B). In non-reducing western blotting where disulfide bonds can be retained, FLAG-sortilin Full and ECD+TMD expressed a couple of bands (FIG. 2C). A band of 75-100 kDa was detected as monomers (FIG. 2C). Bands of approximately 200 kDa and higher molecular weight were detected as homodimers and multimers with intermolecular disulfide bonds (FIG. 2C). Next, FLAG-sortilin Full and ECD+TMD were cross-linked using water-soluble, non-cleavable cross-linker, BS3, in HEK293 cells. Both bands of homodimers and multimers appeared via the cross-linking (FIG. 2D). […] Dimerization of FLAG-sortilin ICD+TMD was not clearly detected in the non-reducing western blotting using whole cell lysate (FIG. 2C) potentially due to low protein expression levels of FLAG-sortilin ICD+TMD (FIGS. 2B, 2C). […] Therefore, it was determined whether FLAG-sortilin ICD+TMD can undergo degradation in proteasome and lysosome by adding proteasome inhibitor, MG-132, and lysosome inhibitor, chloroquine, to FLAG-sortilin ICD+TMD HEK293 cells, respectively. […] In non-reducing western blotting, bands with molecular size approximately twice as high as monomers of FLAG-sortilin ICD+TMD were detected (FIG. 2G). […]

Binder	binding result [1]	binding result [3]	further results
6×His-sortilin ICD+TMD C783A (receptor) SAPHHHHHHNSVPIILAIVGLMLVTVVAGVLIVKKYVAGGRFLVHRYSVLQQHAEANGVDGVDALDTASHTNKSGYHDDSDEDLLE	no binding		
6×His-sortilin full-length (Full) (receptor, 6×His inserted after Ser78-Ala79-Pro80; Written as the form after propeptide cleavage; also called 6×His-sortilin WT; 6×His-sortilin wild-type) SAPHHHHHHGEDEECGRVRDFVAKLANNTHQHVFDDLRGSVSLSWVGDSTGVILVLTTFHVPLVIMTFGQSKLYRSEDYGKNFKDITDLINNTFIRTEFGMAIGPENSGKVVLTAEVSGGSRGGRIFRSSDFAKNFVQTDLPFHPLTQMMYSPQNSDYLLALSTENGLWVSKNFGGKWEEIHKAVCLAKWGSDNTIFFTTYANGSCKADLGALELWRTSDLGKSFKTIGVKIYSFGLGGRFLFASVMADKDTTRRIHVSTDQGDTWSMAQLPSVGQEQFYSILAANDDMVFMHVDEPGDTGFGTIFTSDDRGIVYSKSLDRHLYTTTGGETDFTNVTSLRGVYITSVLSEDNSIQTMITFDQGGRWTHLRKPENSECDATAKNKNECSLHIHASYSISQKLNVPMAPLSEPNAVGIVIAHGSVGDAISVMVPDVYISDDGGYSWTKMLEGPHYYTILDSGGIIVAIEHSSRPINVIKFSTDEGQCWQTYTFTRDPIYFTGLASEPGARSMNISIWGFTESFLTSQWVSYTIDFKDILERNCEEKDYTIWLAHSTDPEDYEDGCILGYKEQFLRLRKSSMCQNGRDYVVTKQPSICLCSLEDFLCDFGYYRPENDSKCVEQPELKGHDLEFCLYGREEHLTTNGYRKIPGDKCQGGVNPVREVKDLKKKCTSNFLSPEKQNSKSNSVPIILAIVGLMLVTVVAGVLIVKKYVCGGRFLVHRYSVLQQHAEANGVDGVDALDTASHTNKSGYHDDSDEDLLE			binding result [2]: binds
B1		binds	
FLAG-sortilin S316E (receptor) SAPDYKDDDDKGEDEECGRVRDFVAKLANNTHQHVFDDLRGSVSLSWVGDSTGVILVLTTFHVPLVIMTFGQSKLYRSEDYGKNFKDITDLINNTFIRTEFGMAIGPENSGKVVLTAEVSGGSRGGRIFRSSDFAKNFVQTDLPFHPLTQMMYSPQNSDYLLALSTENGLWVSKNFGGKWEEIHKAVCLAKWGSDNTIFFTTYANGSCKADLGALELWRTSDLGKSFKTIGVKIYSFGLGGRFLFAEVMADKDTTRRIHVSTDQGDTWSMAQLPSVGQEQFYSILAANDDMVFMHVDEPGDTGFGTIFTSDDRGIVYSKSLDRHLYTTTGGETDFTNVTSLRGVYITSVLSEDNSIQTMITFDQGGRWTHLRKPENSECDATAKNKNECSLHIHASYSISQKLNVPMAPLSEPNAVGIVIAHGSVGDAISVMVPDVYISDDGGYSWTKMLEGPHYYTILDSGGIIVAIEHSSRPINVIKFSTDEGQCWQTYTFTRDPIYFTGLASEPGARSMNISIWGFTESFLTSQWVSYTIDFKDILERNCEEKDYTIWLAHSTDPEDYEDGCILGYKEQFLRLRKSSMCQNGRDYVVTKQPSICLCSLEDFLCDFGYYRPENDSKCVEQPELKGHDLEFCLYGREEHLTTNGYRKIPGDKCQGGVNPVREVKDLKKKCTSNFLSPEKQNSKSNSVPIILAIVGLMLVTVVAGVLIVKKYVCGGRFLVHRYSVLQQHAEANGVDGVDALDTASHTNKSGYHDDSDEDLLE	binds		
FLAG-sortilin ECD+TMD (receptor, written as the form after propeptide cleavage; also called FLAG-sortilin ECD plus transmembrane domain) SAPDYKDDDDKGEDEECGRVRDFVAKLANNTHQHVFDDLRGSVSLSWVGDSTGVILVLTTFHVPLVIMTFGQSKLYRSEDYGKNFKDITDLINNTFIRTEFGMAIGPENSGKVVLTAEVSGGSRGGRIFRSSDFAKNFVQTDLPFHPLTQMMYSPQNSDYLLALSTENGLWVSKNFGGKWEEIHKAVCLAKWGSDNTIFFTTYANGSCKADLGALELWRTSDLGKSFKTIGVKIYSFGLGGRFLFASVMADKDTTRRIHVSTDQGDTWSMAQLPSVGQEQFYSILAANDDMVFMHVDEPGDTGFGTIFTSDDRGIVYSKSLDRHLYTTTGGETDFTNVTSLRGVYITSVLSEDNSIQTMITFDQGGRWTHLRKPENSECDATAKNKNECSLHIHASYSISQKLNVPMAPLSEPNAVGIVIAHGSVGDAISVMVPDVYISDDGGYSWTKMLEGPHYYTILDSGGIIVAIEHSSRPINVIKFSTDEGQCWQTYTFTRDPIYFTGLASEPGARSMNISIWGFTESFLTSQWVSYTIDFKDILERNCEEKDYTIWLAHSTDPEDYEDGCILGYKEQFLRLRKSSMCQNGRDYVVTKQPSICLCSLEDFLCDFGYYRPENDSKCVEQPELKGHDLEFCLYGREEHLTTNGYRKIPGDKCQGGVNPVREVKDLKKKCTSNFLSPEKQNSKSNSVPIILAIVGLMLVTVVAGVLIV		binds	
